In patent US20250066490A1, “ANTI-CD70 ANTIBODIES, CONJUGATES THEREOF AND METHODS OF USING THE SAME” (ProfoundBio US Co., priority 2021, published 2025):

Columns and labels:
CD70 ECD = target: T1, CD70 ECD (Homo sapiens, UniProt P32970); assay: Biacore affinity measurement on immobilized CD70 ECD; assay type: binding
T1 sequence (P32970 39-193 limits assumed): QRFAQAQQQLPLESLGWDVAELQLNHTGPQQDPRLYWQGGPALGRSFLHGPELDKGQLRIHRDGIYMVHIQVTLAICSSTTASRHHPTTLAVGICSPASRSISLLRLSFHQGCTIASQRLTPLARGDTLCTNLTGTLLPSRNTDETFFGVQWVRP
Protocol: The immobilization of antigen CD70 ECD was performed at 25° C. with HBS-EP as the running buffer. Sensor chip surface of flow cells 1, 4 were activated by freshly mixed 50 mmol/L N-Hydroxy succinimide (NHS) and 200 mmol/L 1-ethyl-3-(3-dimethylaminopropyl) carbodiimide hydrochloride (EDC) for 420s (10 μL/min). Afterwards, CD70 antigen diluted in 10 mmol/L NaAC (pH 4.5) was injected into flow cell 4 to achieve conjugation of the appropriate Response Unit, while flow cell 1 was set as a blank. After the amine coupling reaction, the remaining active coupling sites on chip surface were blocked by 420s injection of 1 mol/L ethanolamine hydrochloride.
The assay was performed at 25° C. and the running buffer was HBS-EP. Diluted antibodies were injected over the surface of flow cells 1 and 4 during the association phase, followed by injecting running buffer as the dissociation phase. All the data were processed using Biacore T200 Evaluation software version 3.1. Flow cell 1 and a blank injection of buffer in each cycle were used as a double reference for Response Units subtraction. Kinetic data of the interaction between the antibodies and CD70 antigen were obtained through affinity measurement.

[1] = target: T2, mouse CD70 extra-cellular domain (ECD) (Mus musculus, UniProt O55237); assay: Biolayer interferometry (BLI), mouse CD70; assay type: binding; conditions: for Response: *Response below range of quantification
T2 construct: human, rat, or mouse CD70 extra-cellular domain (ECD) linked to His tag; His tag; purchased ACRO systems
T2 sequence (O55237 45-195): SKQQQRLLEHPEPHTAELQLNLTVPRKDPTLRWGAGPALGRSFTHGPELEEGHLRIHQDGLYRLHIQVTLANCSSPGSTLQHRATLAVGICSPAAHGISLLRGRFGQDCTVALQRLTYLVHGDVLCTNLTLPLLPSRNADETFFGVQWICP
Protocol: Recombinant proteins consisting of human, rat, or mouse CD70 extra-cellular domain (ECD) linked to His tag was purchased (from ACRO systems). 69A7 and 2E7 (20 nM) were immobilized on anti-human IgG Fc biosensor tips (ForteBio). Binding assays using one concentration (100 nM) of recombinant protein in solution were performed using Octet RED (ForteBio). Association time was set at 180s and dissociation time was set at 300s. Binding affinity was calculated using ForteBio Data Acquisition 6.3 software. Affinity was derived by fitting the kinetic data to a 1:1 Langmuir binding model utilizing global fitting algorithms. […] Binding assays for 2E7 using multiple dilutions (from 200 nM down to 3.13 nM) of species' recombinant CD70 ECD proteins in solution were also performed using the same method.

Caki-1 cells = assay: Internalization by FACS immune-fluorescence staining, Caki-1; assay type: cell-based, human
Protocol: Briefly, 2×10^5 cells were harvested from a tissue culture flask by treatment with 0.25% Trypsin/EDTA and then incubated with 10 μg/ml of the lead antibodies or control antibodies in FACS buffer (1×PBS with 0.1% BSA) for 30 mins at 4° C. The cells were washed at 4° C. to remove unbound antibodies and kept on ice or shifted to 37° C. At the set time points (0 h, 4 h, 24 h), cells were incubated with PE-conjugated anti human Fc (Abcam, Ab98596) for 30 mins at 4° C. and then analyzed by flow cytometry. The internalization ratio was calculated by subtracting the 37° C. MFI from the 4° C. MFI, and then compared with 4° C. MFI.
(§1) Four cell lines ([…]), Caki-1, Raji, MCF-7) were utilized in the internalization assay. Target (CD70) copy numbers were determined via the QIFIKIT (DAKO, K0078). Briefly, cells were labeled with a primary mouse monoclonal antibody against CD70. Cells, Set-up beads, Calibration beads (from the kit) were then labeled in parallel with a fluorescein-conjugated anti-mouse secondary antibody. The fluorescence is correlated with the number of bound primary antibody molecules on the cells and on the beads. Samples were subsequently analyzed on the flow cytometer and copy number determined based on the calibration curve (Table 11). For internalization assay, 3×10^5 cells were incubated at 4° C. for 30 min with 10 µg/ml 2E7 in FACS buffer (1×PBS containing 0.1% BSA). Cells were washed at 4° C. to remove unbound material and kept on ice or shifted to 37° C. for different lengths of time. At progressive timepoints ([…], 0.5, 1, 2, 3, 4 hr) cells were stained with PE-conjugated anti-human Fc for 30 min at 4° C. and analyzed by flow cytometry. Internalization rate were calculated by subtracting the mean fluorescence intensity (MFI) of cell surface-bound antibody at 37° C. at each time point from the MFI of cell surface-bound antibody at 4° C. at time 0, then divided by the MFI of the cell surface-bound antibody at 4° C. at time 0.

[2] = Hydrophobic interaction chromatography (HIC); assay type: physicochemical; conditions: full IgG
Protocol: Antibodies were purified from cleared cell culture supernatants using Protein A chromatography (Protein A resin slurry, 4.5 mL, Bogen, Cat #18-0010-02). Briefly, supernatants were prepared for affinity chromatography and loaded onto the columns and allowed to flow completely through the resin. The columns were washed with binding buffer containing 0.15M NaCl and 0.2M PB, PH7.0. Antibody was eluted with elution buffer containing 0.15M NaCl, 0.1M Glycine and 0.2M PB, PH 3.0. Fractions were collected and neutralized by the addition of 1/10 volume of 1M Tris, PH9.0. The fractions were dialyzed for 2 hours against 1×PBS. Purified antibody was quantified by absorbance at A280. Samples from each step of the protein A chromatography were applied onto 12% SDS-PAGE gels for reduced and non-reduced electrophoresis. The hydrophobicity was assessed with hydrophobic interaction chromatography (HIC) on a TSK gel Butyl-NPR, 4.6×100 mm with Butyl-NPR (Tosoh corporation) using a Waters HPLC 2695 system.

[3] = tested on: CD70-negative cell line (MCF-7); assay: Internalization time course, MCF-7; assay type: cell-based; conditions: MCF-7, up to 4 hr, FIG. 13
Protocol: as §1

B1: 2E7: anti-CD70 antibody clone, VH SEQ 7 and VL SEQ 8; tested as scFv and full human IgG1/kappa (antibody, V domains shown)
VH: QVQLQESGPGLVKPSETLSLTCTVSGGSVSSDYYYWSWIRQPPGKGLEWLGYIYYSGSTNYNPSLKSRVTISVDTSKNQFSLKLRSVTTADTAVYYCARGDGDFLGVCFDYWGQGTLVTVSS
VL: EIVLTQSPATLSLSPGERATLSCRASQSVSSYLAWYQQKPGQAPRLLIFDASNRATGIPARFSGSGSGTDFTLTISSLEPEDFAVYYCQQRSNWPLTFGGGTKVEIK
modifications: Synthetic 2E7 VH amino acid sequence; Synthetic 2E7 VL amino acid sequence
notes: tested as scFv and full human IgG1/kappa
affinity to CD70 antigen, fold greater than the reference antibody h1F6 (CD70 ECD): 2-3 fold | Rmax (RU) (CD70 ECD; 25° C., CD70 immobilized): 32.94 RU | ka (CD70 ECD; 25° C., CD70 immobilized): 75400 M⁻¹ s⁻¹ | kd (CD70 ECD; 25° C., CD70 immobilized): 0.00106 s⁻¹ | Response ([1]; MOUSE CD70 3.13 nM): *−6.014E−03 | Response ([1]; MOUSE CD70 6.25 nM): *−5.879E−03 | Response ([1]; MOUSE CD70 12.5 nM): *−1.516E−03 | Response ([1]; MOUSE CD70 25 nM): *−3.009E−03 | Response ([1]; MOUSE CD70 50 nM): *0.0063 | Response ([1]; MOUSE CD70 100 nM, dilution series): *0.0111 | Response ([1]; MOUSE CD70 200 nM): *0.0012 | ka ([1]; MOUSE CD70, multiple dilutions 200-3.13 nM, global fit, responses below range of quantification): 117000 M⁻¹ s⁻¹ | Response ([1]; MS CD70 100 nM, one concentration): *0.0045 | ka ([1]; MS CD70 100 nM, one concentration, response below range of quantification): 3250 M⁻¹ s⁻¹ | cross-reactivity to mouse CD70 ([1]; multiple dilutions, Table 10): no cross-reactivity | cross-reactivity to mouse CD70 ([1]; one concentration (100 nM), Table 9): no cross-reactivity | absolute amount of antibody internalized into cell vs parent antibody 69A7 (Caki-1 cells; Caki-1, based on the cell binding affinity): higher absolute amount of antibody internalized into cell than the parent antibody 69A7 | internalization, time course (Caki-1 cells; Caki-1, up to 4 hr, FIG. 13): rapid internalization | hydrophobicity compared with the parent antibody 69A7 ([2]; HIC): slightly more hydrophobic than the parent antibody 69A7 | Retention time ([2]; hydrophobicity by HIC): 10.19 min | internalization, time course [3]: no internalization
